Experimental data: US20170114347

Legend:
Assay in all cases: cell_activity
[1] = test system: ZC3H10 TALE-VP64 (Xanthomonas); details: CITED; U-2OS; cited from earlier work
[2] = test system: TALE-activator Ntf3-4 (Xanthomonas); details: NTF3 mRNA in 293 cells; p65 version weaker
[3] = test system: PUMA TALE-VP16 (Xanthomonas); details: CITED; cited from earlier work
[4] = test system: TALE-activator Ntf3-5 (Xanthomonas); details: NTF3 mRNA in 293 cells; p65 version weaker
[5] = test system: TALE-activator Ntf3-2 (Xanthomonas); details: NTF3 mRNA in 293 cells; p65 version weaker
[6] = test system: OSGIN2 TALE-VP64 (Xanthomonas); details: CITED; U-2OS; cited from earlier work
[7] = test system: IFNb1 TALE-VP16 (Xanthomonas); details: CITED; cited from earlier work
[8] = test system: IFNa1 TALE-VP16 (Xanthomonas); details: CITED; cited from earlier work
[9] = test system: NTF3 TALE-VP16 (Miller 2011) (Xanthomonas); details: CITED; HEK293; cited from earlier work
[10] = test system: TALE-activator Ntf3-3 (Xanthomonas); details: NTF3 mRNA in 293 cells; p65 version weaker
[11] = test system: TALE-activator Ntf3-1 (Xanthomonas); details: NTF3 mRNA in 293 cells; weakest about 1000-fold; p65 version weaker
[12] = test system: KLF4 TALE-VP16 (Xanthomonas); details: CITED; cited from earlier work
[13] = test system: SOX2 TALE-VP16 (Xanthomonas); details: CITED; cited from earlier work

TACCATATCCCATCCAACTC (double strand) [ZC3H10 site]
activity (fold activation) [1]: 1.3

TACGCCTCAGACCTGATC (double strand) [Ntf3-4 site]
activity (fold activation (approx.)) [2]: > 1000

TACTTGGAGGCAGTCAAGT (double strand) [PUMA site]
activity (fold activation) [3]: 1.5

TCCCTCAATCTGGGAAAG (double strand) [Ntf3-5 site]
activity (fold activation (approx.)) [4]: > 1000

TCCGAACAGCTCCGCGCA (double strand) [Ntf3-2 site]
activity (fold activation (approx.)) [5]: > 1000

TCCTCCCCACCTTTAATTTT (double strand) [OSGIN2 site]
activity (fold activation) [6]: 4.8

TCTCATATAAATAGGCCAT (double strand) [IFNb1 site]
activity (fold activation) [7]: 3.5

TGGAAAGTGGCCCAGAAGCAT (double strand) [IFNa1 site]
activity (fold activation) [8]: 3.1

TGGAGCCATCTGGCCGGGT (double strand) [NTF3 site]
activity (fold activation) [9]: 30

TTCCCCTGCTGGGTAGTG (double strand) [Ntf3-3 site]
activity (fold activation (approx.)) [10]: > 1000

TTCTGTTCACGGGACTCA (double strand) [Ntf3-1 site]
activity (fold activation (approx.)) [11]: > 1000

TTCTTACTTATAAC (double strand) [KLF4 site]
activity (fold activation) [12]: 2.2

TTTATTCCCTGACA (double strand) [SOX2 site]
activity (fold activation) [13]: 5.5
